The source of these data is PMC9482650, “Quantitative fragmentomics allow affinity mapping of interactomes” (Nature Communications, 2022).

Targets include Inadl_3, Q8NI35; DLG1_3, Q12959; Inadl_4, Q8NI35; DLG1_1, Q12959; MAGI1_2, Q96QZ7; Inadl_9, Q8NI35; MAGI2_5, Q86UL8; DLG4_1, P78352.
What all share (test): holdup assay
Common to all, as to design: key: below the threshold = too weak to quantify, mostly under pKd 3.1 to 4

For a further assay, the target named is T1, SYNJ2BP, P57105.
T1 sequence (P57105 8-110, limits assumed, looked up): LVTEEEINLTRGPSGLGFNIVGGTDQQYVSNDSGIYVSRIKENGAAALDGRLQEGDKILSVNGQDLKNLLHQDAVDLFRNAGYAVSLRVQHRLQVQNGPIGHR

The next assay addresses T2, HTRA4, P83105.
T2 sequence (P83105 378-476, limits assumed, looked up): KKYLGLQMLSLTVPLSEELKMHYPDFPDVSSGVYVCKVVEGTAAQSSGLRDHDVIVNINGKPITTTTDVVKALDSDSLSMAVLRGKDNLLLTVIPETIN

The next assay has as its target T3, SNTA1, Q13424.
T3 sequence (Q13424 82-180, limits assumed, looked up): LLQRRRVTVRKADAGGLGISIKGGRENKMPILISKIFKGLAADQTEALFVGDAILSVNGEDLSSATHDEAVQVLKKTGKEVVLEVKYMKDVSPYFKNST

In the next assay the target is T4, PDZD7_3, Q9H5P4.
T4 sequence (Q9H5P4 857-944, limits assumed, looked up): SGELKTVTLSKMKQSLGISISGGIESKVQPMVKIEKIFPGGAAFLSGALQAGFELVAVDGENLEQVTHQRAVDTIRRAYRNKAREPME

The target of another assay is T5, GRIP1_2, Q9Y3R0.
T5 sequence (Q9Y3R0 145-248, limits assumed, looked up): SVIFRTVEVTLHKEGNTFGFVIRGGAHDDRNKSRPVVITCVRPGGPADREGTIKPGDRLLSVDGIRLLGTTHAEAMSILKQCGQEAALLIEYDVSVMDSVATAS

A further assay concerns the target T6, LIN7C, Q9NUP9.
T6 sequence (Q9NUP9 88-185, limits assumed, looked up): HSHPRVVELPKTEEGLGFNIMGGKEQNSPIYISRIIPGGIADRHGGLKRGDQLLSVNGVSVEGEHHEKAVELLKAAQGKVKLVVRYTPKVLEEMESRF

The target in the next assay is T7, RAPGEF6, Q8TEU7.
T7 sequence (Q8TEU7 525-625, limits assumed, looked up): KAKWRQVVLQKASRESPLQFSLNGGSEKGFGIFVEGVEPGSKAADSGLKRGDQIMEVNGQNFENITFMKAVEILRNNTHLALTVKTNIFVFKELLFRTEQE

For another assay, the target named is T8, DFNB31_3, Q9P202.
T8 sequence (Q9P202 811-907, limits assumed, looked up): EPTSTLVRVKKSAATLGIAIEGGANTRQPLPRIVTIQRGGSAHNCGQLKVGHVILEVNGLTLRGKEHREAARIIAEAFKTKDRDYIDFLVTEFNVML

Another assay has as its target T9, TIAM2, Q8IVF5.
T9 sequence (Q8IVF5 885-986, limits assumed, looked up): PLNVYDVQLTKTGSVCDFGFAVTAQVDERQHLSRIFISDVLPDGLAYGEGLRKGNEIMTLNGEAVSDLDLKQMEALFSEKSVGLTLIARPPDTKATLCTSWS

The target in another assay is T10, APBA2_1, Q99767.
T10 sequence (Q99767 563-664, limits assumed, looked up): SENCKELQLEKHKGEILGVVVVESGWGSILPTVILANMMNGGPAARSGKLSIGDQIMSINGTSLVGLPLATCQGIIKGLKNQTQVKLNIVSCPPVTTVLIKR

In another assay the target is T11, APBA2_2, Q99767.
T11 sequence (Q99767 654-744, limits assumed, looked up): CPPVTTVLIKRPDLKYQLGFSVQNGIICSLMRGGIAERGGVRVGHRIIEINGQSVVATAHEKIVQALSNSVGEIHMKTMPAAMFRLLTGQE

The target in the next assay is T12, TX1BP3, O14907.
T12 sequence (O14907 10-122, limits assumed, looked up): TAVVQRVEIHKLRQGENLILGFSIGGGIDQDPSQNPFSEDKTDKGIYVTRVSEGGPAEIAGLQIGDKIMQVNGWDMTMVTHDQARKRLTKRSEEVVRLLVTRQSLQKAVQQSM

The next assay has as its target T13, APBA1_1, Q02410.
T13 sequence (Q02410 651-752, limits assumed, looked up): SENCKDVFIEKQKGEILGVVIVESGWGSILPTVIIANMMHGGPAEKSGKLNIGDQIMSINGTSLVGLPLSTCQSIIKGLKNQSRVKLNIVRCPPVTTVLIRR

For another assay, the target named is T14, GRIP1_3, Q9Y3R0.
T14 sequence (Q9Y3R0 247-346, limits assumed, looked up): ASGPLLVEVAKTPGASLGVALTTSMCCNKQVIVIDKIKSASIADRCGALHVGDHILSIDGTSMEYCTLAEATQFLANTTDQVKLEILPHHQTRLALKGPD

The mark [1] stands for this setting: plain residues with an end cap or a label only (N-terminal biotin on a linker: ado-ado).
Where [2] appears, read: plain residues with an end cap or a label only (N-terminal biotin on a linker: ttds).
The mark [3] stands for this setting: plain residues with an end cap or a label only (N-terminal biotin on a linker: ahx).

Chain of MAGI1_2, Q96QZ7 (Q96QZ7 456-580): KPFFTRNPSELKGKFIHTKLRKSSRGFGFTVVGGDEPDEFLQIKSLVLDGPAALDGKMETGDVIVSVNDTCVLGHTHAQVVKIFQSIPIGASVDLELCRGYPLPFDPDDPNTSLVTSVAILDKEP
Chain of Inadl_4, Q8NI35 (Q8NI35 547-651): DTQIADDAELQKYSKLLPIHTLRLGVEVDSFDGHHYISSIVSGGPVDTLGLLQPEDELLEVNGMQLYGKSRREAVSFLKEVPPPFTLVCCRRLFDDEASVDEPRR
Chain of Inadl_9, Q8NI35 (Q8NI35 1530-1615): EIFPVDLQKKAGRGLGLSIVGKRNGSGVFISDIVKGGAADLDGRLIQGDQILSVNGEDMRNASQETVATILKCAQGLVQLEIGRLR
Chain of DLG4_1, P78352 (P78352 62-152): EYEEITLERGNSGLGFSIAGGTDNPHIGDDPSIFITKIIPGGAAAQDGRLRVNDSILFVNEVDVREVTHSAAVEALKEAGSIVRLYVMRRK
Chain of MAGI2_5, Q86UL8 (Q86UL8 915-1017): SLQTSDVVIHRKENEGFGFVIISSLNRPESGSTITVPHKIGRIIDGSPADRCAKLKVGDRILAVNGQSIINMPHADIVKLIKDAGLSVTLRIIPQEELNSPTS
Chain of Inadl_3, Q8NI35 (Q8NI35 359-469): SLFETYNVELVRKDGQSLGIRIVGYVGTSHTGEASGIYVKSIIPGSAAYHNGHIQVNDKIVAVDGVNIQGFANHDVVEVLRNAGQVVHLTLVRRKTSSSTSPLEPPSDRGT

The pKd is −log10 of the Kd, conventionally taken in molar units. Turning to TETASVCTKV [SLC23A1, Q9UHI7], the pKd entry with Inadl_3, Q8NI35 (setting [1]) was “below the threshold”; with DLG1_3, Q12959 (setting [1]), “below the threshold”; with SYNJ2BP, P57105 (setting [1]), “below the threshold”; in the assay with HTRA4, P83105 (setting [1]), 4.15; with SNTA1, Q13424 (setting [1]), 4; with PDZD7_3, Q9H5P4 (setting [1]), 4.63. In addition, the pKd result with GRIP1_2, Q9Y3R0 (setting [1]) was “below the threshold”; in the assay with LIN7C, Q9NUP9 (setting [1]), 4.08; with Inadl_4, Q8NI35 (setting [1]), “below the threshold”; with RAPGEF6, Q8TEU7 (setting [1]), “below the threshold”; in the assay with DLG1_1, Q12959 (setting [1]), 3.84; with DFNB31_3, Q9P202 (setting [1]), “below the threshold”. The pKd result in the assay with TIAM2, Q8IVF5 (setting [1]) was “below the threshold”; in the assay with APBA2_1, Q99767 (setting [1]) it was “below the threshold”; in the assay with MAGI1_2, Q96QZ7 (setting [1]), “below the threshold”; with Inadl_9, Q8NI35 (setting [1]) it was “below the threshold”; in the assay with APBA2_2, Q99767 (setting [1]), “below the threshold”; with MAGI2_5, Q86UL8 (setting [1]), 4.46. In addition, the pKd with TX1BP3, O14907 (setting [1]) is 3.76; with APBA1_1, Q02410 (setting [1]), “below the threshold”; with DLG4_1, P78352 (setting [1]) it was 3.9; with GRIP1_3, Q9Y3R0 (setting [1]), “below the threshold”.
As to DPRNTQTSQI [ABRAXAS2, Q15018], the pKd result with Inadl_3, Q8NI35 (setting [2]) is “below the threshold”; with DLG1_3, Q12959 (setting [2]) it was 3.52; with SYNJ2BP, P57105 (setting [2]), 3.68; with HTRA4, P83105 (setting [2]), 3.48; with SNTA1, Q13424 (setting [2]), “below the threshold”; in the assay with PDZD7_3, Q9H5P4 (setting [2]) it was 4.31. Also, the pKd with GRIP1_2, Q9Y3R0 (setting [2]) was 3.57; with LIN7C, Q9NUP9 (setting [2]), 3.66; with Inadl_4, Q8NI35 (setting [2]) it was “below the threshold”; with RAPGEF6, Q8TEU7 (setting [2]), “below the threshold”; with DLG1_1, Q12959 (setting [2]) it was 3.49; in the assay with DFNB31_3, Q9P202 (setting [2]), 3.67. In addition, the pKd entry with TIAM2, Q8IVF5 (setting [2]) is “below the threshold”; with APBA2_1, Q99767 (setting [2]), “below the threshold”; in the assay with MAGI1_2, Q96QZ7 (setting [2]), 3.52; in the assay with Inadl_9, Q8NI35 (setting [2]), “below the threshold”; with APBA2_2, Q99767 (setting [2]), “below the threshold”; with MAGI2_5, Q86UL8 (setting [2]), “below the threshold”. The pKd is 3.71 with TX1BP3, O14907 (setting [2]); “below the threshold” with APBA1_1, Q02410 (setting [2]); 3.65 with DLG4_1, P78352 (setting [2]); “below the threshold” with GRIP1_3, Q9Y3R0 (setting [2]).
With RTRQRNETQV [HPV51-E6, P26554], the pKd entry with Inadl_3, Q8NI35 (setting [2]) was “below the threshold”; in the assay with DLG1_3, Q12959 (setting [2]) it was 4.54; with SYNJ2BP, P57105 (setting [2]), 5.02; in the assay with HTRA4, P83105 (setting [2]), “below the threshold”; with SNTA1, Q13424 (setting [2]) it was 4.23; with PDZD7_3, Q9H5P4 (setting [2]) it was 3.88. Also, the pKd in the assay with GRIP1_2, Q9Y3R0 (setting [2]) is 3.46; with LIN7C, Q9NUP9 (setting [2]) it was 3.84; with Inadl_4, Q8NI35 (setting [2]), “below the threshold”; with RAPGEF6, Q8TEU7 (setting [2]), “below the threshold”; with DLG1_1, Q12959 (setting [2]), 4.78; with DFNB31_3, Q9P202 (setting [2]), “below the threshold”. Further, the pKd result with TIAM2, Q8IVF5 (setting [2]) was “below the threshold”; with APBA2_1, Q99767 (setting [2]) it was “below the threshold”; in the assay with MAGI1_2, Q96QZ7 (setting [2]), 5.93; with Inadl_9, Q8NI35 (setting [2]) it was “below the threshold”; in the assay with APBA2_2, Q99767 (setting [2]) it was “below the threshold”; with MAGI2_5, Q86UL8 (setting [2]), 4.12. The pKd with TX1BP3, O14907 (setting [2]) was 4.13; with APBA1_1, Q02410 (setting [2]), “below the threshold”; with DLG4_1, P78352 (setting [2]) it was 4.9; with GRIP1_3, Q9Y3R0 (setting [2]), “below the threshold”.
LCALPKVTTV [AGMAT, Q9BSE5]: the pKd with Inadl_3, Q8NI35 (setting [2]) came out at 3.54; with DLG1_3, Q12959 (setting [2]), 4.77; with SYNJ2BP, P57105 (setting [2]), 4.35; in the assay with HTRA4, P83105 (setting [2]), 4.66; in the assay with SNTA1, Q13424 (setting [2]), 4.81; with PDZD7_3, Q9H5P4 (setting [2]) it was 5.41. In addition, the pKd result in the assay with GRIP1_2, Q9Y3R0 (setting [2]) was “below the threshold”; in the assay with LIN7C, Q9NUP9 (setting [2]), 4.38; in the assay with Inadl_4, Q8NI35 (setting [2]), “below the threshold”; with RAPGEF6, Q8TEU7 (setting [2]), 3.63; with DLG1_1, Q12959 (setting [2]) it was 4.97; with DFNB31_3, Q9P202 (setting [2]) it was 3.69. The pKd result in the assay with TIAM2, Q8IVF5 (setting [2]) is “below the threshold”; in the assay with APBA2_1, Q99767 (setting [2]) it was “below the threshold”; in the assay with MAGI1_2, Q96QZ7 (setting [2]) it was 4.1; in the assay with Inadl_9, Q8NI35 (setting [2]), 3.52; with APBA2_2, Q99767 (setting [2]), “below the threshold”; with MAGI2_5, Q86UL8 (setting [2]), 3.63. For the same molecule, the pKd is 4.07 with TX1BP3, O14907 (setting [2]); “below the threshold” with APBA1_1, Q02410 (setting [2]); 4.69 with DLG4_1, P78352 (setting [2]); “below the threshold” with GRIP1_3, Q9Y3R0 (setting [2]).
Regarding QGRWDHETIV [TMEM215, Q68D42], the pKd with Inadl_3, Q8NI35 (setting [3]) came to 4.42; with DLG1_3, Q12959 (setting [3]), 3.68; with SYNJ2BP, P57105 (setting [3]), 4.14; with HTRA4, P83105 (setting [3]), 3.53; with SNTA1, Q13424 (setting [3]) it was 5.28; with PDZD7_3, Q9H5P4 (setting [3]) it was 4.97. Also, the pKd entry is “below the threshold” with GRIP1_2, Q9Y3R0 (setting [3]); 3.88 with LIN7C, Q9NUP9 (setting [3]); “below the threshold” in the assay with Inadl_4, Q8NI35 (setting [3]); “below the threshold” with RAPGEF6, Q8TEU7 (setting [3]); 4.84 with DLG1_1, Q12959 (setting [3]); “below the threshold” in the assay with DFNB31_3, Q9P202 (setting [3]). Moreover, the pKd entry was “below the threshold” in the assay with TIAM2, Q8IVF5 (setting [3]); “below the threshold” in the assay with APBA2_1, Q99767 (setting [3]); 3.84 in the assay with MAGI1_2, Q96QZ7 (setting [3]); 3.92 with Inadl_9, Q8NI35 (setting [3]); “below the threshold” with APBA2_2, Q99767 (setting [3]); 4.44 with MAGI2_5, Q86UL8 (setting [3]). Further, the pKd was 4.31 with TX1BP3, O14907 (setting [3]); “below the threshold” in the assay with APBA1_1, Q02410 (setting [3]); 4.68 in the assay with DLG4_1, P78352 (setting [3]); “below the threshold” in the assay with GRIP1_3, Q9Y3R0 (setting [3]).
